Reference: publication PMC6610696 (Structure (London, England : 1993), 2019)
Positions count from the first letter of the chain named. Names and notes keep the numbering of the source. Read-outs that look alike come from different tables or passages of the source. Square brackets hold non-standard residues; d marks the D form. Ends that are not written are not given here. pS = N[C@@H](COP(=O)(O)O)C(=O)O

B1: Nrd1 CID D70A mutant (domain or fragment, S. cerevisiae, UniProt P53617 6-151, looked up)
chain: DFQNFVATLESFKDLKSGISGSRIKKLTTYALDHIDIESKIISLIIDYSRLCPDSHKLGSLYIIASIGRAYLDETRSNSNSSSNKPGTCAHAINTLGEVIQELLSDAIAKSNQDHKEKIRMLLDIWDRSGLFQKSYLNAIRSKCFA
B2: Nrd1 CID Y67A mutant (domain or fragment, S. cerevisiae, UniProt P53617 6-151, looked up)
chain: B1 chain with Y62A, A65D
B3: ScSen1-NIM2-FAM peptide (peptide)
peptide: DDEDDYTPSISD
modifications: also: 5-FAM label: N-terminal per methods, C-terminal per resources table
B4: Nrd1 CID D70N mutant (domain or fragment, S. cerevisiae, UniProt P53617 6-151, looked up)
chain: B1 chain with A65N

Legend:
Test in all cases: fluorescence polarisation
[1] = target: T1, S. cerevisiae Nrd1 CID (residues 6-151), N-terminal hexa-histidine tag (S. cerevisiae, UniProt P53617 6-151)
T1 sequence (looked up): B1 chain with A65D

[2] = target: B3
[3] = target: T1, S. cerevisiae Nrd1 CID (residues …); remark: listed apart in the source

Work on EAEDPYDLNPHPQ [ScSen1-NIM3 peptide] yielded a Kd [1] of 38 µM.

DDEDDYTPSISD [ScSen1-NIM2 peptide]: binds [1].

For DDENDYTPSISD [ScSen1-NIM2-D2056N peptide], the “fold increase in Kd against wild-type NIM2” value [1] was 13 fold.

For DDEDDYTVSISD [ScSen1-NIM2-P2060V peptide], the “fold increase in Kd against wild-type NIM2” value [1] was about 20 fold.

In the case of DDEDDYTASISD [ScSen1-NIM2-P2060A peptide], the “fold increase in Kd against wild-type NIM2” value [1] is reported as about 20 fold.

SPT[pS]PSYSPT[pS]PS [Pol II Ser5P CTD peptide] was tested, and the Kd [1] was 216 µM.

In the case of B1, the “fold increase in Kd for NIM2 against wild-type CID” value (shortened to “fold increase in Kd for NIM2”) [2] is reported as 30 fold.

In the case of B2, the “fold increase in Kd for NIM2” value [2] is reported as 90 fold.

In the case of B3, the Kd [3] is reported as 0.56 µM.

With B4 the “fold increase in Kd for NIM2” value [2] was 3 fold.

Binder EQEDDYKLPMEYIT [ScSen1-NIM1 peptide] has a Kd [1] of 7.6 µM.
